B1: NG83: anti-HER3 mAb; light chain CDRs SEQ ID NOs: 7-9, heavy chain CDRs 10-12 (antibody, V domains shown)
VH: QIQLVQSGPELKKRGETVKISCKASGYTFTNYGMNWVRQAPGKGLKCMGWINTYAGEPTYADDFKGRFAFSLDSSASTAYLQINNLKNEDMATYFCARGGITGAMDYWGQGTSVTVSS
VL: DVVMTQKTSSLSTSLGDRVTISCRASQDIRNYLNWYQQKPDGTVKLLIYYTSRLHSGVPSRFSGSGSGTDYSLTISDLEQEDIATYFCQQGNTLPWTFGGGTKLAIK
modifications: VH chain of NG83 polypeptide; VL chain of NG83 polypeptide
B2: XC252: anti-HER3 mAb generated as described in Chen X, et al. (1996); heavy and light chain SEQ ID NOs: 49 and 53 (antibody, V domains shown)
VH: EVQLQQSGAELVRPGVSVKISCKGSGYTFTDYAMHWVKQSHAKSLEWIGVISTYYGDPRDNQKFKGKATMTVDKSSSTAYMELARLTSEDSAIYYCARGDYDWYAIDYWGQGTSVTVSS
VL: DVVMTQTPLSLPVSLGDQASISCRSSQSIVHSDGNTYLEWYLQKPGQSPKLLIYKVSNRFSGVPDRFSGSGSGTDFTLKISRVEAEDLGVYYCFQGSHVPPTFGGGTKLEIK
modifications: VH chain of XC252 polypeptide; VL chain of XC252 polypeptide

Columns and labels:
BxPC3 xenografts = experiment: BxPC3 cell xenografts in CD1-Nude mice; type: in vivo; conditions: 0.2 mg/injection IP every 3 days for 5 weeks, 7 to 8 mice per group
Experimental: (§1) FIGS. 15A-F show the effects of a mixture of two anti HER3 mAbs, in vivo on BxPC3 cell xenografts and in vitro. (FIGS. 15A-C) CD1-Nude mice were grafted subcutaneously with 5×10^6 BxPC3 cells. Once tumors became palpable (after 13 days), the mice were randomized into group of 8 mice and treated every 3 days for 5 weeks. The control group (CTRL) was injected intra-peritoneally (IP) with 200 μl PBS. The other groups were treated with mAb alone or in combination at a final concentration of 0.2 mg/0.2 ml of PBS per mouse. The mice were weighted once a week and the tumors measured twice a week. An average tumor size of 7-8 mice (+/−SEM) is shown. (FIGS. 15D-F) Proliferation assays using MTT were performed on BxPC-3. 5,000 cells per well were plated the day before and treated for 72 h with the indicated mAb treatment. Decreasing concentrations of the indicated mAb (alone or in combination) were used in medium supplemented with 1% serum and NRG (10 ng/ml).
All animal studies were approved by the Weizmann Institute's Review Board (IRB). Tumor bearing CD1/nude mice were randomized in groups of five-ten mice and injected subcutaneously in the right flank with cancer cells (3-5×10^6 per mouse depending on the cell line). mAbs were injected intraperitoneally at a total dose of 200 μg per mouse per injection, twice a week, for 5 weeks or until tumors reached the size of 1,500 mm^3. In experiments evaluating the effect of the TKI AZD-9291, Vehicle (Vehicle formulation: HPMC 0.5% (sigma Cat#56340), Tween80 0.1% (Sigma Cat #P8074 in water), Erlotinib at a dose of 50 mg/kg per injection, or AZD9291 at a dose of 1 or 5 mg/kg per injection were injected daily intraperitoneally. In one experiment (FIG. 16), mice were treated daily with Erlotinib at a dose of 50 mg/kg per injection until tumors reached a size of 800 mm^3 and only then were treated as indicated. Tumor volume and body weight were evaluated twice and once per week, respectively. Mice were euthanized when tumor size reached 1,500 mm^3. […] Survival of the tumor bearing mice was recorded and depicted by Kaplan-Meier analysis. […]

BxPC3 cells = experiment: MTT assay on BxPC3 cells in culture; type: cell-based, human; conditions: 3 days
Experimental: as §1
To determine if the combination of NG33 mAb with another anti-HER3 mAb is more efficient than using NG33 alone, the combination of two mAbs, NG33 and XC252, was tested on several tumor cell lines, which were grafted subcutaneously (gastric: N87, lung: A549, pancreatic: BxPC3, ovarian: OVCAR-5, and head and neck: CAL-27, FIG. 14). This pilot was performed with 3 mice per group. Mice were injected twice a week with the mAb combination or with PBS. The best responder of these in vivo models for solid tumor growth was the BxPC3 xenograft model. […] This experiment was performed on 7 to 8 mice per group. The mice were treated every 3 days with PBS, each mAb alone or a mAb combination, for 5 weeks (0.2 mg/injection). […] In order to reinforce the in vivo data, the cytotoxicity of each mAb alone or in combination with NG33 was tested on BxPC3 cells in culture (FIGS. 15D, 15E and 15F). Decreasing concentrations of mAb were used and a MTT assay was performed following 3 days of treatment. […] On the contrary, XC252 used alone has a […] cytotoxic impact on BxPC3 proliferation leading to 60% inhibition of cell survival at high concentration.

NRG binding to HER3 = NRG binding to HER3 (Homo sapiens, UniProt P21860); conditions: increasing mAb concentrations, 45 min at 4° C., then d2-labeled NRG
Experimental: (FIG. 9A) The indicated mAbs were checked for their capacity to compete with fluorescent dye labeled NRG. […] After washes, the labeled-NRG was added and incubated for 30 min at 4° C. Fluorescence intensity at 670 nm was determined following 3 final washes. (FIG. 9B) The ability of the mAbs to avoid NRG-induced phosphorylation of HER3, AKT and ERK, was studied with N87 cells. After 20 min treatment with the indicated mAbs (10 μg/ml) at 37° C., NRG (20 ng/ml) was added to the cells for 10 min. The cells were then lysed, and equal quantities of protein lysates were run on 9% bisacrylamide gel before immunoblotting with the indicated primary antibodies. (FIG. 9C) The capacity of mAb NG33 to avoid NRG-induced migration was checked with OVCAR-5 cells and the quantification reported in a histogram. […] Signals of triplicates were quantified. **** […] (ANOVA and post hoc tests).
Agent labeling was performed by Cisbio. […] Following 1 h incubation, the plate was washed 4 times with KREBS buffer (146 mM NaCl, 4 mM KCl, 0.5 mM MgCl2, 1 mM CaCl2, 10 mM Hepes, 1 gr/L glucose, and 1 mg/mL albumin), and the fluorescent intensity (excitation: 488 nm, emission: 610 nm) was measured using a fluorescence microplate reader. […] Finally, following two washes with KREBS buffer, the fluorescence intensity was measured at 670 nm (excitation: 620 nm). […]

Sequence of NRG binding to HER3 (P21860 20-1342): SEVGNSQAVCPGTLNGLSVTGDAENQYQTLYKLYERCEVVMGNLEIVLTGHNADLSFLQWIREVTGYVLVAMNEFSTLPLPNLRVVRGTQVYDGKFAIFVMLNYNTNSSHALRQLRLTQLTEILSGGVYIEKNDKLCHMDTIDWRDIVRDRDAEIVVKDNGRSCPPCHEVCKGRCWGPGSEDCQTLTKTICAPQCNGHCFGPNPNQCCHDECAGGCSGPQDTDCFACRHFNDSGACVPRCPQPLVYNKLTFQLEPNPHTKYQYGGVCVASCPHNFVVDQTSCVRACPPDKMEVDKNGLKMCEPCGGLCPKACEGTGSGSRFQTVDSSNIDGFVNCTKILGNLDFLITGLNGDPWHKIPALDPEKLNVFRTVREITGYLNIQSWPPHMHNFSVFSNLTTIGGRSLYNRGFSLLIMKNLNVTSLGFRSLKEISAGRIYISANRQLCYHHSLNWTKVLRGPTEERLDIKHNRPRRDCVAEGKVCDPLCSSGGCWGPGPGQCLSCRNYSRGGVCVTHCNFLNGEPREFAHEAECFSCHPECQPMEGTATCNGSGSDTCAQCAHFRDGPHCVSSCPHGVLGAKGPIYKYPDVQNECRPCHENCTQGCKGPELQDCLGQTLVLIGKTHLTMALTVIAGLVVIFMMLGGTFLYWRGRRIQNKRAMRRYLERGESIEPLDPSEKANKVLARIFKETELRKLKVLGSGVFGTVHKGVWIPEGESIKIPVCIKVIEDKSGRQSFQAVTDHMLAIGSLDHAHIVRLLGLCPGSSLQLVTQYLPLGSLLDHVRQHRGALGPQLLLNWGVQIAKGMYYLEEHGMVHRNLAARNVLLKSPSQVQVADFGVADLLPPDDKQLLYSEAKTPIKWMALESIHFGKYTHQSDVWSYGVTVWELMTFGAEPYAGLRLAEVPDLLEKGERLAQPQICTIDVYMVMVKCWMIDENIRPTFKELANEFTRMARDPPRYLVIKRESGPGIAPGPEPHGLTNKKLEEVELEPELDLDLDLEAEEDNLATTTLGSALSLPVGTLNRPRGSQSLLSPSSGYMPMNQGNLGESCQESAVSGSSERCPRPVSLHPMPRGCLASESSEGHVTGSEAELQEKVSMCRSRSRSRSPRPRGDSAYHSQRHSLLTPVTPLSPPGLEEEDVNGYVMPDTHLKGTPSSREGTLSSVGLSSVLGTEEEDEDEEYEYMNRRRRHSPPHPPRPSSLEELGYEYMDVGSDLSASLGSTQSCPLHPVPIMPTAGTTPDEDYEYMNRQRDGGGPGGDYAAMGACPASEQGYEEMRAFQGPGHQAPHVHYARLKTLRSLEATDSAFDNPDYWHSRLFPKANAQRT

Molecule	effect on BxPC3 xenograft tumor growth (BxPC3 xenografts)	effect on BxPC3 proliferation/survival (in words) (BxPC3 cells)	effect on NRG binding to HER3 (NRG binding to HER3)	inhibition of cell survival (BxPC3 cells; high concentration, 1% serum, NRG 10 ng/ml)
B1	no statistically significant ability to decrease tumor growth	did not interfere with cell proliferation	did not disturb NRG binding	
B2	no statistically significant ability to decrease tumor growth		slightly enhanced NRG binding	60%

Reference: patent publication US10526416B2, “Anti-HER3 antibodies and uses of same” (Yeda Research and Development Co. Ltd., priority 2014, dated 2020)
